Results from the supplement of paper PMC7877785.
± gives the uncertainty stated by the source.

Experiment: self-splicing fitness, log relative to wild type (ln ratio); higher = more splicing; Tetrahymena group I intron in knt gene, E. coli kanamycin selection, DiMSum; sequences stand for … in CUCUCU…GGAGGGAAAAGUUAUCAGGCAUGCACCUGGUAGCUAGUCUUUAAACCAAUAGAUUGCAUCGGUUUAAAAGGCAAGACCGUCAAAUUGCGGGAAAGGGGUCAACAGCCGUUCAGUACCAAGUCUCAGGGGAAACUUUGAGAUGGCCUUGCAAAGGGUAUGGUAAUAAGCUGACGGACAUGGUCCUAACCACGCAGCCAAGUCCUAAGUCAACAGAUCUUCUGUUGAUAUGGAUGCAGUUCACAGACUAAAUGUCGGUCGGGGAAGAUGUAUUCUUCUCAUAAGAUAUAGUCGGACCUCUCCUUAAUGGGAGCUAGCGGAUGAAGUGAUGCAACACUGGAGCCGCUGGGAACUAAUUUGUAUGCGAAAGUAUAUUGAUUAGUUUUGGAGUACUCGUGGUCG
In short: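 A randomised library covering all eight P1ex-region intron nucleotides was built with the intron in the knt kanamycin-resistance gene on pET-22b(+) and held in E. coli BL21(DE3). Cells were grown overnight at 37°C or 30°C on LB agar, with or without 25 μg/mL kanamycin, plus 100 μg/mL carbenicillin, 50 μM IPTG and 0.2% rhamnose, and pooled colonies were amplicon-sequenced on an Illumina HiSeq 2500. DiMSum fitness is the error-weighted combination of wild-type-normalised replicate fold changes, kanamycin versus none.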

| Sequence | self-splicing fitness (ln) (30 °C) | self-splicing fitness (ln) (37 °C) |
| --- | --- | --- |
| CCAUAGCAAUAUUACGGUGU | -4.24 ± 0.17 | -2.58 ± 0.15 |
| CCAUAGCAAUAUUACGGUUU | -4.54 ± 0.25 | -2.79 ± 0.21 |
| CCAUAGCAAUAUUACGUAUA | -3.89 ± 0.3 | -1.46 ± 0.17 |
| CCAUAGCAAUAUUACGUCAA | -4.82 ± 0.41 | -0.857 ± 0.17 |
| CCAUAGCAAUAUUACGUCGC | -3.46 ± 0.22 | -3.74 ± 0.31 |
| CCAUAGCAAUAUUACGUGAC | -2.57 ± 0.13 | -2.79 ± 0.3 |
| CCAUAGCAAUAUUACGUGCC |  | -2.41 ± 0.41 |
| CCAUAGCAAUAUUACGUUAC | -2.14 ± 0.17 | -3.54 ± 0.47 |
| CCAUAGCAAUAUUACGUUGC | -4.15 ± 0.22 | -2.52 ± 0.23 |
| CCCAAGCAAUAUUACGAGAA | -3.57 ± 0.33 | -2.87 ± 0.28 |
| CCCAAGCAAUAUUACGAGUA | -4.12 ± 0.18 | -2.5 ± 0.14 |
| CCCAAGCAAUAUUACGAUCU | -2.73 ± 0.14 | -3.53 ± 0.27 |
| CCCAAGCAAUAUUACGCAGG | -2.94 ± 0.2 | -2.7 ± 0.48 |
| CCCAAGCAAUAUUACGCCGC | -2.08 ± 0.37 | -1.07 ± 0.4 |
| CCCAAGCAAUAUUACGCGUA | -3.43 ± 0.2 | -1.29 ± 0.17 |
| CCCAAGCAAUAUUACGGUCU | -4.2 ± 0.2 | -2.64 ± 0.14 |
| CCCAAGCAAUAUUACGUAAA | -4.05 ± 0.33 | -3.46 ± 0.39 |
| CCCAAGCAAUAUUACGUAUA | -2.91 ± 0.23 | -3.24 ± 0.23 |
| CCCAAGCAAUAUUACGUAUG | -4.01 ± 0.15 | -1.47 ± 0.11 |
| CCCAAGCAAUAUUACGUGCA | -3.83 ± 0.23 | -2.57 ± 0.16 |
| CCCAAGCAAUAUUACGUGUG | -2.98 ± 0.071 | -3.12 ± 0.094 |
| CCCAAGCAAUAUUACGUUAU | -4.09 ± 0.2 | -2.96 ± 0.19 |
| CCCCAGCAAUAUUACGAAAG | -4.79 ± 0.23 | -1.93 ± 0.12 |
| CCCCAGCAAUAUUACGAAUC | -3.68 ± 0.16 | -2.49 ± 0.22 |
| CCCCAGCAAUAUUACGACAA |  | -2.78 ± 0.28 |

| Sequence | self-splicing fitness (ln) (30 °C) | self-splicing fitness (ln) (37 °C) |
| --- | --- | --- |
| CCCCAGCAAUAUUACGACUG | -3.32 ± 0.11 | -2.97 ± 0.17 |
| CCCCAGCAAUAUUACGAGGG | -3.83 ± 0.15 | -2.78 ± 0.18 |
| CCCCAGCAAUAUUACGAGGU | -3.6 ± 0.12 | -2.23 ± 0.12 |
| CCCCAGCAAUAUUACGAGUA | -2.91 ± 0.12 | -2.58 ± 0.14 |
| CCCCAGCAAUAUUACGAUCA | -1.97 ± 0.12 | -2.68 ± 0.23 |
| CCCCAGCAAUAUUACGAUGU | -4.53 ± 0.2 | -3.11 ± 0.17 |
| CCCCAGCAAUAUUACGCACC | -2.46 ± 0.18 | -2.32 ± 0.24 |
| CCCCAGCAAUAUUACGCAGC | -3.44 ± 0.15 | -2.84 ± 0.21 |
| CCCCAGCAAUAUUACGCCGC | -2.93 ± 0.31 | -2.26 ± 0.42 |
| CCCCAGCAAUAUUACGCCGU | -3.04 ± 0.16 | -2.23 ± 0.21 |
| CCCCAGCAAUAUUACGCCUA | -2.61 ± 0.18 | -2.89 ± 0.32 |
| CCCCAGCAAUAUUACGCCUC | -3.25 ± 0.21 | -1.6 ± 0.21 |
| CCCCAGCAAUAUUACGCGAU | -4.32 ± 0.25 | -2.36 ± 0.28 |
| CCCCAGCAAUAUUACGCGGU | -3.91 ± 0.13 | -2.17 ± 0.15 |
| CCCCAGCAAUAUUACGCUCA | -3.21 ± 0.24 | -0.421 ± 0.17 |
| CCCCAGCAAUAUUACGCUCC | -3.09 ± 0.36 | -2.91 ± 0.47 |
| CCCCAGCAAUAUUACGGGAG | -3.08 ± 0.17 | -2.61 ± 0.18 |
| CCCCAGCAAUAUUACGGGGA | -3.15 ± 0.14 | -3 ± 0.15 |
| CCCCAGCAAUAUUACGGUAA | -3.78 ± 0.15 | -2.78 ± 0.16 |
| CCCCAGCAAUAUUACGGUUA | -3.5 ± 0.17 | -2.61 ± 0.13 |
| CCCCAGCAAUAUUACGUACU | -3.21 ± 0.22 | -2.67 ± 0.27 |
| CCCCAGCAAUAUUACGUCGG | -3.66 ± 0.16 | -2.86 ± 0.33 |
| CCCCAGCAAUAUUACGUGAG | -1.84 ± 0.07 | -1.33 ± 0.084 |
| CCCCAGCAAUAUUACGUGCA | -4.13 ± 0.18 | -2.17 ± 0.14 |
| CCCCAGCAAUAUUACGUGCG | -3.1 ± 0.099 | -2.58 ± 0.14 |

| Sequence | self-splicing fitness (ln) (30 °C) | self-splicing fitness (ln) (37 °C) |
| --- | --- | --- |
| CCCCAGCAAUAUUACGUGUU | -3.79 ± 0.12 | -3.3 ± 0.17 |
| CCCCAGCAAUAUUACGUUUU | -4.12 ± 0.14 | -2.55 ± 0.11 |
| CCCGAGCAAUAUUACGAAUG | -2.61 ± 0.18 | -1.41 ± 0.22 |
| CCCGAGCAAUAUUACGAGGG | -4.84 ± 0.36 | -2.58 ± 0.22 |
| CCCGAGCAAUAUUACGAGUG | -3.04 ± 0.17 | -1.99 ± 0.13 |
| CCCGAGCAAUAUUACGAUCC | -2.76 ± 0.24 | -2.71 ± 0.27 |
| CCCGAGCAAUAUUACGCAAG | -2.73 ± 0.27 |  |
| CCCGAGCAAUAUUACGCAUG | -3.7 ± 0.15 | -2.64 ± 0.15 |
| CCCGAGCAAUAUUACGCCGG | -3.9 ± 0.37 | -2.23 ± 0.34 |
| CCCGAGCAAUAUUACGCCUG | -4.16 ± 0.39 |  |
| CCCGAGCAAUAUUACGCGAU | -1.12 ± 0.19 | -2.5 ± 0.34 |
| CCCGAGCAAUAUUACGCUCA | -2.87 ± 0.32 | -2.7 ± 0.36 |
| CCCGAGCAAUAUUACGGAAG | -3.91 ± 0.24 | -2.29 ± 0.15 |
| CCCGAGCAAUAUUACGGCGA | -2.7 ± 0.2 | -1.19 ± 0.12 |
| CCCGAGCAAUAUUACGGUCC | -2.99 ± 0.26 | -2.61 ± 0.22 |
| CCCGAGCAAUAUUACGUCAC | -2.9 ± 0.37 | -2.27 ± 0.49 |
| CCCGAGCAAUAUUACGUCGG | -3.02 ± 0.25 | -2.41 ± 0.32 |
| CCCGAGCAAUAUUACGUUAC | -3.01 ± 0.35 | -2.37 ± 0.32 |
| CCCUAGCAAUAUUACGACAU | -3.809 ± 0.024 | -2.93 ± 0.039 |
| CCCUAGCAAUAUUACGACGC | -3.34 ± 0.32 | -2.53 ± 0.39 |
| CCCUAGCAAUAUUACGACUC | -4.18 ± 0.28 | -2.71 ± 0.24 |
| CCCUAGCAAUAUUACGAUAC | -2.76 ± 0.38 |  |
| CCCUAGCAAUAUUACGAUCA | -3.03 ± 0.25 | -2.22 ± 0.24 |
| CCCUAGCAAUAUUACGAUCC |  | -1.26 ± 0.45 |
| CCCUAGCAAUAUUACGAUGU | -3.58 ± 0.22 | -2.55 ± 0.18 |

| Sequence | self-splicing fitness (ln) (30 °C) | self-splicing fitness (ln) (37 °C) |
| --- | --- | --- |
| CCCUAGCAAUAUUACGCACC |  | -2.9 ± 0.48 |
| CCCUAGCAAUAUUACGCCCU | -3.61 ± 0.35 | -1.54 ± 0.23 |
| CCCUAGCAAUAUUACGCCGC | -3.7 ± 0.25 | -1.96 ± 0.27 |
| CCCUAGCAAUAUUACGCUGA | -3.14 ± 0.23 | -2.85 ± 0.38 |
| CCCUAGCAAUAUUACGGGGC | -3.47 ± 0.15 | -2.15 ± 0.22 |
| CCCUAGCAAUAUUACGGUAC | -4.33 ± 0.34 | -3.04 ± 0.32 |
| CCCUAGCAAUAUUACGUAAA |  | -2.22 ± 0.32 |
| CCCUAGCAAUAUUACGUAAC | -3.66 ± 0.27 | -1.33 ± 0.18 |
| CCCUAGCAAUAUUACGUACG | -2.86 ± 0.18 | -2.81 ± 0.27 |
| CCCUAGCAAUAUUACGUAGC | -2.65 ± 0.17 | -2.75 ± 0.24 |
| CCCUAGCAAUAUUACGUGCC | -3.52 ± 0.22 | -2.2 ± 0.24 |
| CCGAAGCAAUAUUACGACAU | -3.977 ± 0.028 | -2.82 ± 0.04 |
| CCGAAGCAAUAUUACGCAUA | -2.88 ± 0.27 | -3.64 ± 0.31 |
| CCGAAGCAAUAUUACGCCCU |  | -1.26 ± 0.46 |
| CCGAAGCAAUAUUACGCCUA | -2.94 ± 0.22 | -2.62 ± 0.28 |
| CCGAAGCAAUAUUACGCGAC | -3.1 ± 0.2 | -1.48 ± 0.19 |
| CCGAAGCAAUAUUACGCGCC | -2.58 ± 0.23 | -2.27 ± 0.3 |
| CCGAAGCAAUAUUACGCGUA | -3.7 ± 0.23 | -2.84 ± 0.2 |
| CCGAAGCAAUAUUACGCGUC | -3.28 ± 0.25 | -3.2 ± 0.32 |
| CCGAAGCAAUAUUACGCUAA | -3.2 ± 0.34 | -2.7 ± 0.43 |
| CCGAAGCAAUAUUACGCUGC | -2.89 ± 0.34 | -2.4 ± 0.45 |
| CCGAAGCAAUAUUACGCUUG | -3.79 ± 0.33 | -2.26 ± 0.22 |
| CCGAAGCAAUAUUACGGAAA | -3.26 ± 0.26 | -3.49 ± 0.31 |
